The source of these data is patent US20160297881A1 (ENGMAB, published 2016).

Several values for one entry are separate records, joined by “and”; a condition that tells them apart may be missing. Identical values can stand only once.

Test [1] deals with T1, human ROR1 (human, UniProt Q01973 30-937).
T1 construct: whole, on cells; Endogenous ROR1 on ROR1-positive cells; also called tyrosine-protein kinase transmembrane receptor ROR1; neurotrophic tyrosine kinase, receptor-related 1
Briefly: flow cytometry on ROR1-positive RPMI8226 cells. On the procedure: a) Anti-ROR1 antibodies coming either from the immunization approach and/or from the screening of the recombinant in vitro library described above are analyzed by flow cytometry for binding to human ROR1 on HEK293-ROR1 cells. Briefly, cultured cells are harvested, counted and cell viability is evaluated using the Trypan Blue exclusion method. Viable cells are then adjusted to 2×10⁶ cells per ml in BSA-containing FACS Stain Buffer (BD Biosciences). 90 μl of this cell suspension are further aliquoted per well into a round-bottom 96-well plate. 10 μl of the anti-ROR1 antibodies or corresponding IgG control are added to the cell-containing wells to obtain final concentrations of 0.1 pM to 200 nM. All constructs and control IgG are used at the same molarity. […] The samples are resuspended in 200 μl/well FACS Stain Buffer and acquired and analyzed using an LSR II flow cytometer with FACSDiva® software (BD Biosciences). The mean fluorescence intensity (MFI) is plotted as a function of anti-ROR1 antibody concentration to obtain the binding curve and to calculate the effective antibody concentration to reach 50% of maximal binding (EC₅₀). […]
c) ROR1 expression was then assessed on B lymphocyte myeloma RPMI8226 cell lines by flow cytometry, using the methods described above.

Test [2] has as its target T2, human CD3ε (human, UniProt P07766 23-207).
T2 construct: whole, on cells; On Jurkat cells as part of the TCR/CD3 complex; also called CD3 epsilon
Briefly: flow cytometry on Jurkat T cells expressing human CD3. How it is done: a) Anti-ROR1/anti-CD3 T cell bispecific antibodies generated in Example 3 were also analyzed by flow cytometry for their binding properties to human ROR1 expressed on primary B-CLL cells or human CD3 expressed on human leukemic T cells Jurkat (ATCC TIB-152). Jurkat T cells were cultured in RPMI supplemented with 10% fetal calf serum. Briefly, cultured cells were harvested, counted and cell viability was evaluated using ViCell. Viable cells were then adjusted to 2×10⁶ cells per ml in FACS Stain Buffer (BD Biosciences) containing 0.1% BSA. 100 μl of this cell suspension were further aliquoted per well into a round-bottom 96-well plate. […] After incubation for 30 min at 4° C., cells were centrifuged (5 min, 350×g), washed twice with 150 μl/well BSA-containing FACS Stain Buffer (BD Biosciences), then cells were fixed using 100 ul BD Fixation buffer per well (#BD Biosciences, 554655) at 4° C. for 20 min, resuspended in 120 μl FACS buffer and analyzed using BD FACS CantoII. Binding of the anti-ROR1/anti-CD3 T cell bispecific antibodies to B-CLL cells and T cells were evaluated and the mean fluorescence intensity was determined gated on either ROR1-expressing B-CLL cells or CD3-expressing Jurkat T cells and plotted in histograms or dot plots. […]
For orientation: In flow cytometry, cells or beads pass a laser one at a time.

By EC50 is commonly meant the concentration giving half of the maximal effect. A lower EC50 goes with an effect from little substance.

T1 sequence (Q01973 30-937): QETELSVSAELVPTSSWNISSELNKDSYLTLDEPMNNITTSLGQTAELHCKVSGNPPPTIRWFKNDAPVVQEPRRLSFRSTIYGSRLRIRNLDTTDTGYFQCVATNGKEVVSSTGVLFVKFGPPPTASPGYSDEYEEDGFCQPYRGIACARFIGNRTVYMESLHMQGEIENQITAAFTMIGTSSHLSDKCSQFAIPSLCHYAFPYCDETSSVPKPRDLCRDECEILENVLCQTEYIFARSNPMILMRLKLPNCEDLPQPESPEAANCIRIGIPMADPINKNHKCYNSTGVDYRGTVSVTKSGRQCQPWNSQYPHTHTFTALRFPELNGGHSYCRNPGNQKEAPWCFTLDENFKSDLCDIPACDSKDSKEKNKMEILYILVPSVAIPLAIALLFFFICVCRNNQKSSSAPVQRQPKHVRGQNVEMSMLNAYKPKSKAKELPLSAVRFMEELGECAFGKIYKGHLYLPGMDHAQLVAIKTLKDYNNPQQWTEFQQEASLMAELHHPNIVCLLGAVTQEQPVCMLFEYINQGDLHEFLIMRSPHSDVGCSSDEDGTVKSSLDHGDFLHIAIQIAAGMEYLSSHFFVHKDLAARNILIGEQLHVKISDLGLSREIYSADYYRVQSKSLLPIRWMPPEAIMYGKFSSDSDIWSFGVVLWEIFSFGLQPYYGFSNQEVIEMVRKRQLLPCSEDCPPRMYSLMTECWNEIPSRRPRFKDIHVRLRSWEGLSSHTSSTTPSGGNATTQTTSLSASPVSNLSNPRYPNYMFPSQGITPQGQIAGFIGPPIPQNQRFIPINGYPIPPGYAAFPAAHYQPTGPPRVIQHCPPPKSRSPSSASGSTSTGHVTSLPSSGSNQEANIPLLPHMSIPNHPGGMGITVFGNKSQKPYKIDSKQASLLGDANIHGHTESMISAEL
T2 sequence (P07766 23-207): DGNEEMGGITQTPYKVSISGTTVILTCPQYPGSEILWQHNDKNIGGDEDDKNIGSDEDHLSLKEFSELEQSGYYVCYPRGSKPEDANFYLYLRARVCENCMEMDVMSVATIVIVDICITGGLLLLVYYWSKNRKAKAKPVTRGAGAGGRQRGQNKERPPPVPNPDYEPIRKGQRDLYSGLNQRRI

B1: anti-ROR1 IgG1 antibody (antibody, V domains shown)
VH: QEQLVESGGRLVTPGGSLTLSCKASGFDFSAYYMSWVRQAPGKGLEWIATIYPSSGKTYYATWVNGRFTISSDNAQNTVDLQMNSLTAADRATYFCARDSYADDGALFNIWGPGTLVTISS
VL: ELVLTQSPSVSAALGSPAKITCTLSSAHKTDTIDWYQQLQGEAPRYLMQVQSDGSYTKRPGVPDRFSGSSSGADRYLIIPSVQADDEADYYCGADYIGGYVFGGGTQLTVLG
notes: Bivalent human IgG1 kappa; Alexa488-labelled in some assays; also called anti-ROR1 antibody; anti-ROR1 IgG antibody
Take B1: the half-maximal effective concentration (EC50) in test [1] is 0.087 nM and 0.013 µg/mL. In addition, in test [2], the binding result was “no binding (tested: 3 nM to 500 nM)”.
